We go through 11 molecules from patent US20050282743A1, “Molecular interactions in cells” (Arbor Vita Corporation, priority 2001, published 2005).

Assay in all cases: G' assay
Assay [1] deals with T1, GST-Syntrophin gamma 2 PDZ domain 1 (Homo sapiens (Human)), Q9NY99.
T1 chain: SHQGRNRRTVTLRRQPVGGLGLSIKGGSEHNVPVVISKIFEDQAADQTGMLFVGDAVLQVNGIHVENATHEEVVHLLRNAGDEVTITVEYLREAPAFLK

For assay [2], the target named is GST-TAX IP2 PDZ domain 1 [GST: P08515].
The target of assay [3] is T2, GST-ERBIN PDZ domain 1 (Homo sapiens (Human)), Q96RT1.
T2 chain: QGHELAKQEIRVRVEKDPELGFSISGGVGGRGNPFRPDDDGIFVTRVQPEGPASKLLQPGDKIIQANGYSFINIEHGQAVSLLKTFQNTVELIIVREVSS

For assay [4], the target named is T3, GST-KIAA0973 PDZ domain 1 (Homo sapiens (Human)), Q9Y2H9.
T3 chain: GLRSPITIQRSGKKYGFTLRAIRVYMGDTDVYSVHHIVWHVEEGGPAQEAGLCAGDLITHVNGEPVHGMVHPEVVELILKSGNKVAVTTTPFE

Assay [5] addresses GST-KIAA0147 PDZ domain 1 (Homo sapiens (Human)), Q14160.
The target in assay [6] is T4, GST-ZO-3 PDZ domain 3 (Homo sapiens (Human)), O95049.
T4 chain: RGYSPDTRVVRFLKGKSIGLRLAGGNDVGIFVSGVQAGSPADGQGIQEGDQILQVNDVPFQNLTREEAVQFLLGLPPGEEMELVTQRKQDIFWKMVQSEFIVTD

Assay [7] has as its target T5, GST-MUPP1 PDZ domain 11 (Homo sapiens (Human)), O75970.
T5 chain: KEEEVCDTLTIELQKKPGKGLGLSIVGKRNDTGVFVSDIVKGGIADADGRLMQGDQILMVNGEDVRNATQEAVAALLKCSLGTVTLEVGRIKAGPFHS

The target of assay [8] is T6, GST-MUPP1 PDZ domain 10 (Homo sapiens (Human)), O75970.
T6 chain: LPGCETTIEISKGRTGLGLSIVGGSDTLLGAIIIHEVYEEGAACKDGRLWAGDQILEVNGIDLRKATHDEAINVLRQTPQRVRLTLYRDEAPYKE

Assay [9] has as its target T7, GST-PTPL1 PDZ domain 4 (Homo sapiens (Human)), Q12923.
T7 chain: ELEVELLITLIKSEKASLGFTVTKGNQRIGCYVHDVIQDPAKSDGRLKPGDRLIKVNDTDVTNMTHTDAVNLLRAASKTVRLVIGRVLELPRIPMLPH

Assay [10] deals with T8, GST-NOS1 PDZ domain 1 (Homo sapiens (Human)), P29475.
T8 chain: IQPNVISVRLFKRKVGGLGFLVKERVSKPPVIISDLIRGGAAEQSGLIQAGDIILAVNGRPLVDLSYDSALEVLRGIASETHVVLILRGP

Assay [11] concerns the target T9, GST-SYNTENIN PDZ domain 1 (Homo sapiens (Human)), O00560.
T9 chain: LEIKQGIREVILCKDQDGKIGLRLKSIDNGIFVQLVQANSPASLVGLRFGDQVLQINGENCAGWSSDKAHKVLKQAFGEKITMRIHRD

Assay [12] has as its target T10, GST-X-11 beta PDZ domain 2 (Rattus norvegicus (Rat)), O35431.
T10 chain: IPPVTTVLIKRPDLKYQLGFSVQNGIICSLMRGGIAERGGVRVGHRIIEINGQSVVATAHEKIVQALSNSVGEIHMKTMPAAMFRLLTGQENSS

Assay [13] addresses T11, GST-ZO-2 PDZ domain 2 (Homo sapiens (Human)), Q9UDY2.
T11 chain: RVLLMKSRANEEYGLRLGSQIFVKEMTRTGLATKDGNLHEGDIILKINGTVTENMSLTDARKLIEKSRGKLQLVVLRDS

For assay [14], the target named is T12, GST-KIAA1634 PDZ domain 2 (Homo sapiens (Human)), Q5TCQ9.
T12 chain: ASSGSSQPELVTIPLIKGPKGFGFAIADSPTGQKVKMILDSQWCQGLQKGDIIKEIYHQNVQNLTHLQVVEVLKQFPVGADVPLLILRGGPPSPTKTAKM

For assay [15], the target named is T13, GST-EZRIN Binding Protein 50 PDZ domain 1 (Homo sapiens (Human)), O14745.
T13 chain: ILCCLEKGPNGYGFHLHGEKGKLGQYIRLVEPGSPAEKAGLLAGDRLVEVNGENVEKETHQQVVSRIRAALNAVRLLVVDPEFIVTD

The target of assay [16] is T14, GST-DLG2 PDZ domain 2 (Homo sapiens (Human)), Q15700.
T14 chain: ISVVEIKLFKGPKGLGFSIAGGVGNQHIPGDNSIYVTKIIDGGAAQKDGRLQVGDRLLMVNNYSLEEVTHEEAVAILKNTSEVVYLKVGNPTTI

The target of assay [17] is GST-PSD95 PDZ domain 1 (Homo sapiens).
Assay [18] concerns the target T15, GST-INADL PDZ domain 5 (Homo sapiens (Human)), Q8NI35.
T15 chain: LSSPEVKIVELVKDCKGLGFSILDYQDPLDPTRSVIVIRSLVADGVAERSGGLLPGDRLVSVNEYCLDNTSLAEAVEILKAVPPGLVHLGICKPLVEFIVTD

In assay [19] the target is T16, GST-KIAA0147 PDZ domain 2 (Homo sapiens (Human)), Q14160.
T16 chain: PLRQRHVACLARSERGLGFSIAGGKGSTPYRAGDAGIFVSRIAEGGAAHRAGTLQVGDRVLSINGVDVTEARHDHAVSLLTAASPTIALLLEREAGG

The target of assay [20] is GST-DLG1 PDZ domain 1 (Homo sapiens), Q12959.
The target in assay [21] is GST-BAI-1 Associated Protein PDZ domain 5 (Homo sapiens (Human)), Q96QZ7.

Where two headings read alike, the source gives them in different places.
Also: key of the grades not given here.

Sequence of GST-BAI-1 Associated Protein PDZ domain 5 (Homo sapiens (Human)), Q96QZ7 (Q96QZ7 988-1099): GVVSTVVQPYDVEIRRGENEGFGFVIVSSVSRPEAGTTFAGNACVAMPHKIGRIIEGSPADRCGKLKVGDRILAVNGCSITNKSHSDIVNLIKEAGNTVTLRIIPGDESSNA
Sequence of GST-KIAA0147 PDZ domain 1 (Homo sapiens (Human)), Q14160 (Q14160 other isoform, or with tags, fused parts or gaps): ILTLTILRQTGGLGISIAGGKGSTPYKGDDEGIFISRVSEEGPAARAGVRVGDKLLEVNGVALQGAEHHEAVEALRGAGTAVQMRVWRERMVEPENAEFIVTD
Sequence of GST-TAX IP2 PDZ domain 1 [GST: P08515] (P08515 whole entry, the tested form may be a part): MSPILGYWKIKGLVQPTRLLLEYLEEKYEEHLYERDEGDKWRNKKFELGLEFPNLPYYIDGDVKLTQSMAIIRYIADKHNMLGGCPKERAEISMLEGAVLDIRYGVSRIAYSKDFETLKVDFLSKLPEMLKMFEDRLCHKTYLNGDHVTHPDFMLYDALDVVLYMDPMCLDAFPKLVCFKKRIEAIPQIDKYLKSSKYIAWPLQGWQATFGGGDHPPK

On to VPGALDYAAFSSALYGESDL (modifications not checked) [a-actinin 2], for which the Classification in assay [1] turned out to be 1 A450 class; in [2], 5 A450 class; in [3], 1 A450 class; in assay [4] it was 2 A450 class; in assay [5] it was 2 A450 class.
For KTMPAAMYRLLTAQEQPVYI (modifications not checked) [MINT-1], the Classification worked out at 1 A450 class in assay [6]; 5 A450 class in assay [7]; 1 A450 class in assay [8]; 5 A450 class in [9]; 4 A450 class in [10]; 3 A450 class in [11].
Regarding ILNSIQVMRAQMNQIQSVEV (modifications not checked) [ephrin B2], the Classification amounted to 1 A450 class in assay [12]; 1 A450 class in assay [13]; 2 A450 class in assay [4]; 1 A450 class in assay [6]; 1 A450 class in [14]; 2 A450 class in [7]. Moreover, the Classification in assay [15] is 1 A450 class; in [9], 2 A450 class; in [11] it was 1 A450 class.
As for PYSELNYETSHYPASPDSWV (modifications not checked) [catenin - delta 2], the Classification in assay [3] was determined as 4 A450 class; in assay [16], 1 A450 class; in assay [6] it was 3 A450 class; in assay [17], 1 A450 class; in assay [18], 1 A450 class; in [9], 1 A450 class. For the same molecule, the Classification in assay [19] was determined as 3 A450 class; in assay [20], 1 A450 class.
As for HDFRRAFKKILARGDRKRIV (modifications not checked) [alpha-2A Adrenergic receptor], the Classification in [12] was 1 A450 class; in assay [13], 2 A450 class.
Take PIPAGGCTFSGIFPTLTSPL (modifications not checked) [KIA 1481]: the Classification in assay [4] came to 2 A450 class; in assay [14], 1 A450 class; in assay [18], 1 A450 class; in assay [15], 2 A450 class; in [21], 3 A450 class; in assay [5], 2 A450 class.
ELLQFCRTPNPALKNGQYWV (modifications not checked) [CSPG4 (chondroitin sulfae proteoglycan 4, melanoma-associated)]: the Classification in assay [12] came out at 2 A450 class; in assay [13], 1 A450 class; in [3], 3 A450 class; in assay [6], 5 A450 class; in assay [7] it was 5 A450 class; in assay [8] it was 4 A450 class. Further, the Classification in [18] is 5 A450 class; in assay [9], 5 A450 class; in assay [10], 2 A450 class; in assay [11], 2 A450 class.
TQGFPGPATWRRISSLESEV (modifications not checked) [NMDA Glutamate Receptor 2C (cysteine-free)]: the Classification in assay [1] is 2 A450 class; in [2], 4 A450 class; in [3], 4 A450 class; in assay [4], 1 A450 class; in [16], 5 A450 class; in assay [14], 3 A450 class. The Classification came to 5 A450 class in assay [17]; 1 A450 class in [8]; 1 A450 class in assay [18]; 1 A450 class in [19]; 1 A450 class in assay [10]; 4 A450 class in assay [21]. Further, the Classification in assay [20] and in [5] was 5 A450 class in each case.
As to AWDDSARAAGGQGLHVTAL (modifications not checked) [LPAP], the Classification is 5 A450 class in [15], 1 A450 class in assay [10] (remark: other sources report otherwise) and 3 A450 class in assay [5].
For the molecule VGTLLLERVIFPSVKIATLV (modifications not checked) [AdenoE4 typ9], the Classification in assay [16] was determined as 5 A450 class; in assay [14], 5 A450 class; in [17], 4 A450 class; in assay [7], 5 A450 class; in assay [8], 1 A450 class; in [9], 4 A450 class. In addition, the Classification came to 5 A450 class in assay [10] and 4 A450 class in [20].
Regarding QISPGGLEPPSEKHFRETEV (modifications not checked) [TAX], the Classification in assay [1] was 1 A450 class; in assay [2], 2 A450 class; in [3], 5 A450 class; in assay [16], 5 A450 class; in [14], 2 A450 class; in assay [17] it was 5 A450 class. The Classification in assay [19], in assay [21], in [20] and in assay [5] was 5 A450 class each time.
